Measured values as given in paper PMC10397247.
One block for each binder: values may come before it.

What was measured:
4H619-bN = target: T1, 4H619-bN; assay: two-hybrid library CCNG1;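 also: natural log of median RNA to DNA barcode read ratio; higher means stronger binding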
T1 chain: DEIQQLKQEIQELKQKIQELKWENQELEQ

4H3638-bN = target: T2, 4H3638-bN; assay: two-hybrid library CCNG1;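 also: natural log of median RNA to DNA barcode read ratio; higher means stronger binding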
T2 chain: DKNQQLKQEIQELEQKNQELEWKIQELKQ

4H3817-bN = target: T3, 4H3817-bN; assay: two-hybrid library CCNG1;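 also: natural log of median RNA to DNA barcode read ratio; higher means stronger binding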
T3 chain: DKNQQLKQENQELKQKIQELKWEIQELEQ

4H584-bN = target: T4, 4H584-bN; assay: two-hybrid library CCNG1;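 also: natural log of median RNA to DNA barcode read ratio; higher means stronger binding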
T4 chain: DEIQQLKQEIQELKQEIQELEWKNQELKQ

4H3974-bN = target: T5, 4H3974-bN; assay: two-hybrid library CCNG1;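 also: natural log of median RNA to DNA barcode read ratio; higher means stronger binding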
T5 chain: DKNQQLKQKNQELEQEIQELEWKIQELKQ

4H850-bN = target: T6, 4H850-bN; assay: two-hybrid library CCNG1;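 also: natural log of median RNA to DNA barcode read ratio; higher means stronger binding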
T6 chain: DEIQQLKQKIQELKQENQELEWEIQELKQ

4H3631-bN = target: T7, 4H3631-bN; assay: two-hybrid library CCNG1
T7 chain: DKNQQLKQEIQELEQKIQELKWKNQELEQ

4H3414-bN = target: T8, 4H3414-bN; assay: two-hybrid library CCNG1
T8 chain: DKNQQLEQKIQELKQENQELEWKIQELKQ

4H570-bN = target: T9, 4H570-bN; assay: two-hybrid library CCNG1
T9 chain: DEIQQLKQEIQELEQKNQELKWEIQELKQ

4H906-bN = target: T10, 4H906-bN; assay: two-hybrid library CCNG1
T10 chain: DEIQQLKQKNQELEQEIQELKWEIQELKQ

4H2580-AA = target: T11, 4H2580-AA; assay: two-hybrid library CCmax
T11 chain: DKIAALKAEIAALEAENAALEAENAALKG

4H63-AA = target: T12, 4H63-AA; assay: two-hybrid library CCmax; details: mean of both orientations
T12 chain: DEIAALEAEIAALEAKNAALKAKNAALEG

4H483-AA = target: T13, 4H483-AA; assay: two-hybrid library CCmax; details: mean of both orientations
T13 chain: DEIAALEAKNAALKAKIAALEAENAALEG

4H3094-AA = target: T14, 4H3094-AA; assay: two-hybrid library CCmax; details: mean of both orientations
T14 chain: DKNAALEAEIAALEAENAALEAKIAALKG

4H324-AA = target: T15, 4H324-AA; assay: two-hybrid library CCmax; details: mean of both orientations
T15 chain: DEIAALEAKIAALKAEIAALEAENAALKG

4H2774-AA = target: T16, 4H2774-AA; assay: two-hybrid library CCmax; details: mean of both orientations
T16 chain: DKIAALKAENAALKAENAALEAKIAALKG

4H3969-AA = target: T17, 4H3969-AA; assay: two-hybrid library CCmax; details: mean of both orientations
T17 chain: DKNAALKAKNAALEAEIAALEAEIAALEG

4H432-AA = target: T18, 4H432-AA; assay: two-hybrid library CCmax; details: mean of both orientations
T18 chain: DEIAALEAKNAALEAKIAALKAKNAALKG

4H2621-AA = target: T19, 4H2621-AA; assay: two-hybrid library CCmax; details: mean of both orientations
T19 chain: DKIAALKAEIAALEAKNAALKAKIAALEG

4H3414-AA = target: T20, 4H3414-AA; assay: two-hybrid library CCmax; details: mean of both orientations
T20 chain: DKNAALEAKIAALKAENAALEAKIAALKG

4H3974-AA = target: T21, 4H3974-AA; assay: two-hybrid library CCmax; details: mean of both orientations
T21 chain: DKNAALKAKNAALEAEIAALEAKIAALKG

4H2903-AA = target: T22, 4H2903-AA; assay: two-hybrid library CCmax; details: mean of both orientations
T22 chain: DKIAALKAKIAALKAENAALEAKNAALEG

4H3049-AA = target: T23, 4H3049-AA; assay: two-hybrid library CCmax; details: mean of both orientations
T23 chain: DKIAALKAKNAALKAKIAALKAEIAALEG

4H380-AA = target: T24, 4H380-AA; assay: two-hybrid library CCmax; details: mean of both orientations
T24 chain: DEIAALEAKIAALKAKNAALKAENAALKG

4H3629-AA = target: T25, 4H3629-AA; assay: two-hybrid library CCmax; details: mean of both orientations
T25 chain: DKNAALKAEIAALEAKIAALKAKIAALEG

4H2760-AA = target: T26, 4H2760-AA; assay: two-hybrid library CCmax; details: mean of both orientations
T26 chain: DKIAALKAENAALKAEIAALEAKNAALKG

4H3595-AA = target: T27, 4H3595-AA; assay: two-hybrid library CCmax; details: mean of both orientations
T27 chain: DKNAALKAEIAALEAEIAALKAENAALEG

4H341-AA = target: T28, 4H341-AA; assay: two-hybrid library CCmax; details: mean of both orientations
T28 chain: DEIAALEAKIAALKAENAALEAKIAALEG

4H464-AA = target: T29, 4H464-AA; assay: two-hybrid library CCmax; details: mean of both orientations
T29 chain: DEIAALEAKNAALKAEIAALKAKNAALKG

4H3939-AA = target: T30, 4H3939-AA; assay: two-hybrid library CCmax; details: mean of both orientations
T30 chain: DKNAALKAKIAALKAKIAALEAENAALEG

4H3619-AA = target: T31, 4H3619-AA; assay: two-hybrid library CCmax; details: mean of both orientations
T31 chain: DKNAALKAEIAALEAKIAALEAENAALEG

4H2728-AA = target: T32, 4H2728-AA; assay: two-hybrid library CCmax; details: mean of both orientations
T32 chain: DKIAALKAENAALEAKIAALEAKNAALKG

4H3777-AA = target: T33, 4H3777-AA; assay: two-hybrid library CCmax; details: mean of both orientations
T33 chain: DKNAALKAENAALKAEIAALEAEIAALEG

4H2699-AA = target: T34, 4H2699-AA; assay: two-hybrid library CCmax; details: mean of both orientations
T34 chain: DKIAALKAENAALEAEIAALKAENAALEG

4H3449-AA = target: T35, 4H3449-AA; assay: two-hybrid library CCmax; details: mean of both orientations
T35 chain: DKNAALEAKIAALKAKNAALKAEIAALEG

4H2604-AA = target: T36, 4H2604-AA; assay: two-hybrid library CCmax; details: mean of both orientations
T36 chain: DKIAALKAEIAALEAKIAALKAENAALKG

4H2947-AA = target: T37, 4H2947-AA; assay: two-hybrid library CCmax; details: mean of both orientations
T37 chain: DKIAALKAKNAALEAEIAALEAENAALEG

4H2961-AA = target: T38, 4H2961-AA; assay: two-hybrid library CCmax; details: mean of both orientations
T38 chain: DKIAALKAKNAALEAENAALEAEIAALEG

4H3915-AA = target: T39, 4H3915-AA; assay: two-hybrid library CCmax; details: mean of both orientations
T39 chain: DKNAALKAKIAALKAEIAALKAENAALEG

4H446-AA = target: T40, 4H446-AA; assay: two-hybrid library CCmax; details: mean of both orientations
T40 chain: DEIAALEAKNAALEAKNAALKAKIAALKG

4H3129-AA = target: T41, 4H3129-AA; assay: two-hybrid library CCmax; details: mean of both orientations
T41 chain: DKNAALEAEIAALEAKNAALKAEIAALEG

4H3782-AA = target: T42, 4H3782-AA; assay: two-hybrid library CCmax; details: mean of both orientations
T42 chain: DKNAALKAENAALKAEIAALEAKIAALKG

- interaction score (4H619-bN): -2.07
- interaction score (4H3638-bN): -1.41
- interaction score (4H3817-bN): -0.982
- interaction score (4H584-bN): -1.04
- interaction score (4H3974-bN): -0.178
- interaction score (4H850-bN): 0.132
- interaction score (4H3631-bN): -1.25
- interaction score (4H3414-bN): -0.0983
- interaction score (4H570-bN): -0.223
- interaction score (4H906-bN): -1.04
B1: 4H3414-bN (peptide)
chain: DKNQQLEQKIQELKQENQELEWKIQELKQ

- interaction score (4H2580-AA): 0.179
- interaction score (4H63-AA): 0.964
- interaction score (4H483-AA): -1.33
- interaction score (4H3094-AA): -1.36
- interaction score (4H324-AA): 1.93
- interaction score (4H2774-AA): -1.28
- interaction score (4H3969-AA): -1.28
- interaction score (4H432-AA): -1.04
- interaction score (4H2621-AA): -0.357
- interaction score (4H3414-AA): -1.09
- interaction score (4H3974-AA): -1.2
- interaction score (4H2903-AA): -0.221
- interaction score (4H3049-AA): -0.107
- interaction score (4H380-AA): 1.77
- interaction score (4H3629-AA): -0.787
- interaction score (4H2760-AA): -1.47
- interaction score (4H3595-AA): -1.29
- interaction score (4H341-AA): 0.477
- interaction score (4H464-AA): -0.738
- interaction score (4H3939-AA): -0.303
- interaction score (4H3619-AA): -1.26
- interaction score (4H2728-AA): -1.69
- interaction score (4H3777-AA): -1.49
- interaction score (4H2699-AA): -1.81
- interaction score (4H3449-AA): 0.308
- interaction score (4H2604-AA): 1.41
- interaction score (4H2947-AA): -1.82
- interaction score (4H2961-AA): -1.82
- interaction score (4H3915-AA): -0.741
- interaction score (4H446-AA): -1.11
- interaction score (4H3129-AA): -1.21
- interaction score (4H3782-AA): -1.52
B2: 4H2580-AA (peptide)
chain: DKIAALKAEIAALEAENAALEAENAALKG
